# Assay results: publication PMC9997507
# Target: ADAM23-Fc (UniProt Q9R1V7)
# Assay: pull-down; as a2 but with co-expressed LGI3 (LGI3V5/His plasmid); secreted proteins precipitated from conditioned medium with Protein A or Ni-NTA beads; Western blot, band densities quantified in triplicate for ADAM23Fc with ADAM23γHis
substance,measurement,value
ADAM23γV5/His (domain or fragment),fold change of the interaction with LGI3 against without LGI3,2.5 fold
